Results published in PMC5175582.

Experiments:
[1] = target: Biotin-labelled MMRN1 (human) (UniProt Q13201); experiment: SPR; BIAcoreX; biotin-labelled MMRN1 immobilised on streptavidin-coated sensor chips (500–1000 RU); VWF A domains perfused in HEPES-Tyrode running buffer with 0.005 % P-20; two-state conformational model for A1A2A3 and A1, 1:1 Langmuir model for A3; apparent affinity
[2] = target: full-length wild-type (WT)-VWF (UniProt P04275); experiment: ELISA; modified ELISA; MMRN1 immobilised; WT-VWF (1 µg/ml) added simultaneously with collagen peptide (250 μg/ml, no preincubation with VWF); treatment of VWF not stated for this panel

Chain of Biotin-labelled MMRN1 (human) (Q13201 20-1228): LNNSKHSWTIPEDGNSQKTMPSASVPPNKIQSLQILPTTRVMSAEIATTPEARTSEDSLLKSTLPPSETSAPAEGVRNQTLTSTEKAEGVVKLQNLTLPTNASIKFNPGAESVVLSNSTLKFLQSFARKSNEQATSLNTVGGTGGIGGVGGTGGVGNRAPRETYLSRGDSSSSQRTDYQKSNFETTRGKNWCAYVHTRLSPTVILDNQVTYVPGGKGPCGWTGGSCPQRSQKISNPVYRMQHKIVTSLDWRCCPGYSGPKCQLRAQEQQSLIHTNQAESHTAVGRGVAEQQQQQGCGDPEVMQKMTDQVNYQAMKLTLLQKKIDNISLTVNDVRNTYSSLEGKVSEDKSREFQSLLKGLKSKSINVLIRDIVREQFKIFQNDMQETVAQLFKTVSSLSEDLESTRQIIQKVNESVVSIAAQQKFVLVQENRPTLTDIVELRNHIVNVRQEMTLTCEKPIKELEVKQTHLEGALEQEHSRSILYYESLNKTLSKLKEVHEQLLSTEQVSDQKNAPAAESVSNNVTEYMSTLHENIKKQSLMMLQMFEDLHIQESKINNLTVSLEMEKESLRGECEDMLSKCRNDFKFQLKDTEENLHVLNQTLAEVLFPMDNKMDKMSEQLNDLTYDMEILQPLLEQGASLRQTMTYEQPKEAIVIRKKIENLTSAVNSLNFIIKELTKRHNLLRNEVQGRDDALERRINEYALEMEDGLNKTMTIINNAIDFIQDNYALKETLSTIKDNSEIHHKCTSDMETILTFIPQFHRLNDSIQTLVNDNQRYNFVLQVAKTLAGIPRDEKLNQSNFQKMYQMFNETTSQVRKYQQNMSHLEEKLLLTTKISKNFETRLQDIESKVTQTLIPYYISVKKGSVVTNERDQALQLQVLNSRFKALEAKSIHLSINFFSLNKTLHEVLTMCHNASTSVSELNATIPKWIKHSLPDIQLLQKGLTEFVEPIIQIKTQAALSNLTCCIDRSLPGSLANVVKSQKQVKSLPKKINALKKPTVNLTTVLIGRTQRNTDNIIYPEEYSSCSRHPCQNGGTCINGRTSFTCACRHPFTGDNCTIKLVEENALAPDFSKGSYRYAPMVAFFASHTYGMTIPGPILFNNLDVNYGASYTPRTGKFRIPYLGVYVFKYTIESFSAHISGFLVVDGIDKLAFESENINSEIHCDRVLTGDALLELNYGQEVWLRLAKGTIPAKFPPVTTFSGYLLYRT

| Substance | Kd [1] [nM] | ka1 (two-state model, first step) [1] [M⁻¹ s⁻¹] | ka2 (two-state model, second step) [1] [s⁻¹] | kd1 (two-state model, first step) [1] [s⁻¹] | kd2 (two-state model, second step) [1] [s⁻¹] | percent reduction of WT-VWF binding to immobilised MMRN1 [2] [%] |
| --- | --- | --- | --- | --- | --- | --- |
| Monomeric VWF A1 domain (domain or fragment) | 39.3 | 1.2e+06 | 0.01 | 0.13 | 0.0032 |  |
| Triple-helical type III collagen peptide GPRGQOGVMGFO |  |  |  |  |  | 70 |
